Target: T1, CasΦ3 (Cas12j-3) (Biggiephage)
T1 chain: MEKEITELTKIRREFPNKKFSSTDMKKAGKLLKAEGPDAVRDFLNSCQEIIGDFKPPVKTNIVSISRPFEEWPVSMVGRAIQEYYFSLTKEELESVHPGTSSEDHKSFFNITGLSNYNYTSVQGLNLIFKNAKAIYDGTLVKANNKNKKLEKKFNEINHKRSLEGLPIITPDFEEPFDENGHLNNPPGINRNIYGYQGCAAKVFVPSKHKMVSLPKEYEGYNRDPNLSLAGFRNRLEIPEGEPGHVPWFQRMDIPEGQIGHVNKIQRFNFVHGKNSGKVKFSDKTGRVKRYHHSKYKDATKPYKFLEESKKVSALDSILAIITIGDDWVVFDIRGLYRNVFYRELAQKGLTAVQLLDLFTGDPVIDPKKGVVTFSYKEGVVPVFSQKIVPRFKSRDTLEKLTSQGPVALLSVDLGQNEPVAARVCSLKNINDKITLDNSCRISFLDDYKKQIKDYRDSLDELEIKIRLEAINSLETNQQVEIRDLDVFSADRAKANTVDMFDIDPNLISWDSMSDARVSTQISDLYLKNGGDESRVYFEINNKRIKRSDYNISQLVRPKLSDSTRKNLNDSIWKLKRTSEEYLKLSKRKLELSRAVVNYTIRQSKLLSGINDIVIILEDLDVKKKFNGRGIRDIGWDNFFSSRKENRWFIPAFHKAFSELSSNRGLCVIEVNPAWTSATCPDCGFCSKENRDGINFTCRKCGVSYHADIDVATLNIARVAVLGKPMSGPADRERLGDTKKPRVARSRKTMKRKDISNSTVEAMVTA
Assay: structure; cryo-EM 2.7 Å R-loop product complex; PAM TTC; Ni2+
Conditions: tags: C-terminal His6
Procedure: For the preparation of the Cryo-EM sample, Ni²⁺ was used as a catalytic ion instead of Mg²⁺ due to the higher yield obtained with this metal. CasΦ3 RNP was prepared as described before. 25 nmol of RNP and 37 nmol of unlabeled dsDNA substrate were incubated in 25 ml of MonoQ A buffer (20 mM HEPES pH7.5, 200 mM KCl, 1 mM NiSO₄, 0.5 mM TCEP) for 2 h at 20° C. to allow DNA cleavage. The product of the reaction was loaded in a MonoQ column equilibrated with MonoQ A buffer, and CasΦ3 R-loop complex was separated from the RNP and the unbound DNA substrate by a salt gradient elution using MonoQ B buffer (20 mM HEPES pH7.5, 2 M KCl, 1 mM NiSO₄, 0.5 mM TCEP). CasΦ3 R-loop eluted at 16-20% of MonoQ buffer B […]. […] 2.5 μL of freshly purified CasΦ3 R-loop complex (Absorbance_{260 nm} of ~1.6) was applied to UltrAuFoil 300 mesh R0.6/1.0 holey grids (Quantifoil), glow-discharged for 60 s at 10 mA (Leica EM ACE200), and plunge-frozen in liquid ethane (pre-cooled with liquid nitrogen) using a Vitrobot Mark IV (FEI, Thermo Fisher Scientific) using the next conditions: blotting time 3 s, 100% humidity and 4° C.
We reconstituted and characterized a functional CasΦ3-crRNA complex (FIG. 5) and determined the structure of the enzyme after severing a target dsDNA by cryo-EM (FIG. 1). […]

B1: CasΦ3 crRNA ; target dsDNA with TTC PAM (NT/T strands) (ssRNA ; dsDNA)
RNA: UAUUGAUUGCCCAGUACGCUGGGACAGCUGGUAAUGGGAUACCUU
DNA 1: GTAATTCAGCTGGTAATGGGATACCTTGTGCTACAGC
DNA 2: GCTGTAGCACAAGGTATCCCATTACCAGCTGAATTAC
- binding result: binds

Reference: US20260234700, “MUTANT CAS12J ENDONUCLEASES” (University of Copenhagen, published 2026)
